This note sets out measurements from the supplement of paper PMC5998384.

For data set [1], the system named is HeLa Kyoto. Briefly: solubility in G1/S (NP-40 vs SDS abundance) (log2 ratio); higher = more soluble. The settings on record: cell cycle stage: G1/S.
The test system of data set [2] is HeLa Kyoto. Briefly: thermal stability score vs G1/S (z-score of summed log2 fold changes over temperatures); higher = more thermally stable than in G1/S.
For data set [3], the system named is HeLa Kyoto. Briefly: melting temperature (median over replicates), in situ; higher = more thermally stable.
The subject of data set [4] is HeLa Kyoto. Briefly: solubility change mitosis vs G1/S (difference of NP-40 vs SDS log2 ratios) (log2 ratio difference); higher = more soluble in mitosis.
Where [5] appears, read: cell cycle stage: early G1 (4.5 h after nocodazole release).
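Throughout, for melting temperature (median over replicates), in situ: HeLa Kyoto cells synchronized by double thymidine or nocodazole block, proteins quantified by TMT10plex mass spectrometry, three independent biological replicates.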
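Throughout, for solubility change mitosis vs G1/S (difference of NP-40 vs SDS log2 ratios): synchronized HeLa Kyoto cells (double thymidine block for G1/S, nocodazole release for mitosis), protein amounts in NP-40 versus SDS lysates quantified by mass spectrometry, three biological replicates.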
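Throughout, for solubility in G1/S (NP-40 vs SDS abundance): HeLa Kyoto cells arrested at G1/S by double thymidine block, proteins quantified by TMT10plex mass spectrometry in mild NP-40 versus SDS extracts, three biological replicates.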
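Throughout, for thermal stability score vs G1/S (z-score of summed log2 fold changes over temperatures): synchronized HeLa Kyoto cells, proteins quantified by TMT10plex mass spectrometry, three biological replicates, mitosis taken 0.5 h after nocodazole release, G1/S directly after double thymidine block.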

Chain of TIMM50 (chain, as listed by the source): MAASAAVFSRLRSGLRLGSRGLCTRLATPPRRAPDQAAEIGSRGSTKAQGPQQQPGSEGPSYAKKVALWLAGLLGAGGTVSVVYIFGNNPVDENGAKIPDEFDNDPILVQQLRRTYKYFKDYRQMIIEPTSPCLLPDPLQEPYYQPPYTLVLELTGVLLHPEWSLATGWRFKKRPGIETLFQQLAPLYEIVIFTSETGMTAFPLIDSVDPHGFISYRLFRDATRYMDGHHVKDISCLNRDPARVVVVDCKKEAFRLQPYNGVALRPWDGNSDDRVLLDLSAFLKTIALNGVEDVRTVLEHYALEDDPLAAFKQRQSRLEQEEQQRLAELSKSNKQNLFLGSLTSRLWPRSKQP

Take TOP2A: the “solubility in G1/S (log2)” value in data set [1] was -2.15. Besides, the thermal stability score was -0.453 in data set [2] (setting [5]) and 3.49 in data set [2] (cell cycle stage: mitosis). For the same substance, the melting temperature in data set [3] (cell cycle stage: G1/S) was 51 °C; in data set [3] (cell cycle stage: mitosis) it was 52.8 °C. For the same substance, the “solubility change mitosis (log2)” value in data set [4] was -0.207.

As to TIMM50, the “solubility in G1/S (log2)” value in data set [1] is 0.393. Further, the thermal stability score was -0.406 in data set [2] (setting [5]) and -0.388 in data set [2] (cell cycle stage: mitosis). Moreover, the melting temperature is 51.4 °C in data set [3] (cell cycle stage: G1/S) and 50.8 °C in data set [3] (cell cycle stage: mitosis). The “solubility change mitosis (log2)” value in data set [4] was -0.0286.

Take SEC16A: the “solubility in G1/S (log2)” value in data set [1] was -0.0963. In addition, the thermal stability score was 0.0465 in data set [2] (setting [5]) and 2.03 in data set [2] (cell cycle stage: mitosis). Moreover, the melting temperature in data set [3] (cell cycle stage: G1/S) stood at 49.4 °C; in data set [3] (cell cycle stage: mitosis), 49.7 °C. Also, the “solubility change mitosis (log2)” value in data set [4] was -0.00335.

As to “MWGACKVKVHDSLATISITLRRYLRLGATMAKSKFEYVRDFEADDTCLAHCWVVVRLDGRNFHRFAEKHNFAKPNDSRALQLMTKCAQTVMEELEDIVIAYGQSDEYSFVFKRKTNWFKRRASKFMTHVASQFASSYVFYWRDYFEDQPLLYPPGFDGRVVVYPSNQTLKDYLSWRQADCHINNLYNTVFWALIQQSGLTPVQAQGRLQGTLAADKNEILFSEFNINYNNELPMYRKGTVLIWQKVDEVMTKEIKLPTEMEGKKMAVTRTRTKPVPLHCDIIGDAFWKEHPEILDEDS [THG1L]”, the “solubility in G1/S (log2)” value in data set [1] is -0.0679. Moreover, the values for the thermal stability score in data set [2] (setting [5]) and in data set [2] (cell cycle stage: mitosis) were 0.242 and -0.354, respectively. The melting temperature is 53.3 °C in data set [3] (cell cycle stage: G1/S) and 53.5 °C in data set [3] (cell cycle stage: mitosis). Besides, in data set [4], the “solubility change mitosis (log2)” value was -0.0698.

“MMTSVGTNRARGNWEQPQNQNQTQHKQRPQATAEQIRLAQMISDHNDADFEEKVKQLIDITGKNQDECVIALHDCNGDVNRAINVLLEGNPDTHSWEMVGKKKGVSGQKDGGQTESNEEGKENRDRDRDYSRRRGGPPRRGRGASRGREFRGQENGLDGTKSGGPSGRGTERGRRGRGRGRGGSGRRGGRFSAQGMGTFNPADYAEPANTDDNYGNSSGNTWNNTGHFEPDDGTSAWRTATEEWGTEDWNEDLSETKIFTASNVSSVPLPAENVTITAGQRIDLAVLLGKTPSTMENDSSNLDPSQAPSLAQPLVFSNSKQTAISQPASGNTFSHHSMVSMLGKGFGDVGEAKGGSTTGSQFLEQFKTAQALAQLAAQHSQSGSTTTSSWDMGSTTQSPSLVQYDLKNPSDSAVHSPFTKRQAFTPSSTMMEVFLQEKSPAVATSTAAPPPPSSPLPSKSTSAPQMSPGSSDNQSSSPQPAQQKLKQQKKKASLTSKIPALAVEMPGSADISGLNLQFGALQFGSEPVLSDYESTPTTSASSSQAPSSLYTSTASESSSTISSNQSQESGYQSGPIQSTTYTSQNNAQGPLYEQRSTQTRRYPSSISSSPQKDLTQAKNGFSSVQATQLQTTQSVEGATGSAVKSDSPSTSSIPPLNETVSAASLLTTTNQHSSSLGGLSHSEEIPNTTTTQHSSTLSTQQNTLSSSTSSGRTSTSTLLHTSVESEANLHSSSSTFSTTSSTVSAPPPVVSVSSSLNSGSSLGLSLGSNSTVTASTRSSVATTSGKAPPNLPPGVPPLLPNPYIMAPGLLHAYPPQVYGYDDLQMLQTRFPLDYYSIPFPTPTTPLTGRDGSLASNPYSGDLTKFGRGDASSPAPATTLAQPQQNQTQTHHTTQQTFLNPALPPGYSYTSLPYYTGVPGLPSTFQYGPAVFPVAPTSSKQHGVNVSVNASATPFQQPSGYGSHGYNTGVSVTSSNTGVPDISGSVYSKTQQSFEKQGFHSGTPAASFNLPSALGSGGPINPATAAAYPPAPFMHILTPHQQPHSQILHHHLQQDGQTGSGQRSQTSSIPQKPQTNKSAYNSYSWGAN [UBAP2L]”: the “solubility in G1/S (log2)” value in data set [1] is -0.0783. Further, the figures for the thermal stability score in data set [2] (setting [5]) and in data set [2] (cell cycle stage: mitosis) were -3.92 and -3.52, respectively. Further, the melting temperature amounted to 55.5 °C in data set [3] (cell cycle stage: G1/S) and 54.2 °C in data set [3] (cell cycle stage: mitosis). Further, the “solubility change mitosis (log2)” value in data set [4] was determined as 0.0243.

Turning to “MESAGLEQLLRELLLPDTERIRRATEQLQIVLRAPAALPALCDLLASAADPQIRQFAAVLTRRRLNTRWRRLAAEQRESLKSLILTALQRETEHCVSLSLAQLSATIFRKEGLEAWPQLLQLLQHSTHSPHSPEREMGLLLLSVVVTSRPEAFQPHHRELLRLLNETLGEVGSPGLLFYSLRTLTTMAPYLSTEDVPLARMLVPKLIMAMQTLIPIDEAKACEALEALDELLESEVPVITPYLSEVLTFCLEVARNVALGNAIRIRILCCLTFLVKVKSKALLKNRLLPPLLHTLFPIVAAEPPPGQLDPEDQDSEEEELEIELMGETPKHFAVQVVDMLALHLPPEKLCPQLMPMLEEALRSESPYQRKAGLLVLAVLSDGAGDHIRQRLLPPLLQIVCKGLEDPSQVVRNAALFALGQFSENLQPHISSYSREVMPLLLAYLKSVPLGHTHHLAKACYALENFVENLGPKVQPYLPELMECMLQLLRNPSSPRAKELAVSALGAIATAAQASLLPYFPAIMEHLREFLLTGREDLQPVQIQSLETLGVLARAVGEPMRPLAEECCQLGLGLCDQVDDPDLRRCTYSLFAALSGLMGEGLAPHLEQITTLMLLSLRSTEGIVPQYDGSSSFLLFDDESDGEEEEELMDEDVEEEDDSEISGYSVENAFFDEKEDTCAAVGEISVNTSVAFLPYMESVFEEVFKLLECPHLNVRKAAHEALGQFCCALHKACQSCPSEPNTAALQAALARVVPSYMQAVNRERERQVVMAVLEALTGVLRSCGTLTLKPPGRLAELCGVLKAVLQRKTACQDTDEEEEEEDDDQAEYDAMLLEHAGEAIPALAAAAGGDSFAPFFAGFLPLLVCKTKQGCTVAEKSFAVGTLAETIQGLGAASAQFVSRLLPVLLSTAQEADPEVRSNAIFGMGVLAEHGGHPAQEHFPKLLGLLFPLLARERHDRVRDNICGALARLLMASPTRKPEPQVLAALLHALPLKEDLEEWVTIGRLFSFLYQSSPDQVIDVAPELLRICSLILADNKIPPDTKAALLLLLTFLAKQHTDSFQAALGSLPVDKAQELQAVLGLS [IPO4]”, the “solubility in G1/S (log2)” value in data set [1] is -0.204. For the same substance, the thermal stability score came to 0.678 in data set [2] (setting [5]) and 2.82 in data set [2] (cell cycle stage: mitosis). For the same substance, the melting temperature in data set [3] (cell cycle stage: G1/S) is 49.6 °C; in data set [3] (cell cycle stage: mitosis), 49.9 °C. Moreover, the “solubility change mitosis (log2)” value in data set [4] was -0.104.
